Consider two substances from article PMC3281904, “Novel Covalently Linked Insulin Dimer Engineered to Investigate the Function of Insulin Dimerization” (PLoS ONE, 2012).

By stoichiometry N is commonly meant the number of molecules, sites or subunits per partner or assembly.

The target in series [1] is B25C insulin precursor (human) (UniProt P01308). Description: LC/MS; LC/MS of the fermentations; mass of a disulfide-linked dimer.
The conditions of series [2]: hexameric insulin, previously determined, ref 65 (HI), 66 (bovine), 67 (porcine), cited from earlier work. From the text:
Table 2 The experimental parameters determined from the fit in Figure 2 and results previously determined for hexameric insulin of human and porcine origin. | column: Standard Sedimentation Coefficient s20,w, [S]; Standard Diffusion Coefficient D20,w, (×10−7 [cm^2/s]); Molar mass [kg/mole]; Rh [nm]

Marks after values point to notes of the source that are not given here.

On to “B25C insulin precursor (from UniProt P01308 1-29)”, for which the stoichiometry N in series [1] is 2.

For “Bovine insulin: hexameric bovine insulin, literature values”, the “Standard Sedimentation Coefficient s20,w” value in series [2] (HI probably affected by non-ideality) is on record as 3.12 S. Also, in series [2], the Molar mass is 34.4 kg/mol, the Rh is 2.63 nm and the “Standard Diffusion Coefficient D20,w” value is reported as 8.35 ^* ×10−7 cm^2/s.
